18 sequences from the DeepSol protein solubility set can be followed below.

This data set is described as follows: soluble on expression in E. coli; label from the status in PepcDB or PDB records.
In the case of “MQQQGWRTYLYDAEQPYTPVASVTGKGESRQVWYYHTDVTGTPQEVTAADGTLVWAGYIKGFGENAADISNSGAYFHQPLRLPGQYFDDETGLHYNLFRYYAPECGRFVSQDPIGLAGGLNLYQYAPNPIRWIDPLGLAILEHQSNFDAARRTGFENAGMTNPEDVTFSKVDPKTGTVVEFKGPNGAKVAYDAPHADMDVTAGHDKPHVGWQSAGKRGSGGANRGNITYDGPQHPHRSDSKGDDKCLEHHHHHH”, the “soluble on expression in E. coli” value was “not soluble”. Regarding “MQRLEESTSCRGVGDMRKAIIVGVGMTPVGEHWRSSLRDLAVEAILNAMDDAGIDKVDSLYVGNMASGSFVEQENLGALIADWAGLGNIPAVKIEAACASGGAAVQEGAKAVLSGLEDVVLVVGVEKMTDAWPSDATRYLGYAADAEWELFHGASFVALNALIMRLYMNTYGYKEEDLALFAVNAHANGAKNPYAMFKKPITVETVMKSPYIADPLKLFDASPVCDGAAAVIITTPEKAKELGIPKDKWIEIAGMGRAIDTINLANREDFLTLKAATIAAERAYKMAGVKPEDVDFFEVHDAFTVMAALSLEALGVAKKGEGAKLAIEGQIAIDGDYPIQTMGGLKARGHPVGATGVYQVVEAVLQLRGEAPDGIQVPDAEVGLTQNIGGTGSNITVTVLRRV”, the “soluble on expression in E. coli” value was “not soluble”. To “MQSINLPVDHSKIDANFEGYKVSMNNVHFSSKSLDQNLCLRAPSNEMITLQHMKVFSNDNQLFCDYSKCTDSQQFLYRILDTGHIQAMVYEKKTQIWNTSIVGSIDVGTNASSAFPTNLLFTENNLVVACNGISEITVFLAVSDSNWVKMLEHKVSEQGLSLIEARILNGKLNILAYHVESDDSKKTRSRIHSIRINLDDIDYADSLTVEKSMDLIQNGHFETCTFTNNGEIIFLSSEKPHVEGQQEDMEEKATSGQSKPKPTIEEQSRYLVDIKQLITPFDGDASNYLLFKSTFDYLVHNNHFLEINMKNVALVNALTGDAKQFIVTSNIMEMGYKLTLENLEWTFNRPGFQMRLHSEMLERIKFDENDYSQMETALIKYCSIAREIQLWCGQLFTLFGFHRRITGCDRAQMEHSWEQTGNIIQVAFKLKSEISKEDVKIDTTKTGIRLIVKDLTLLSGKLSGEIDENDVEICADQKTNSLKLKLKSIDDKKWEKLISVEYDTLKSLEDSEIKRTMKGEQVIESDEPMEECDETEGSMAFYWVDQESGKVLKQCDVSGSQVLFTSRQSSTSPALICLRHDVDGLLWSFDESAPSHVATLQAFGYVQASKTSRLWSGCSPNKSLACIVEGNNRVLLYSQKVEVSGSLSNRKTSQTVSHVSKQHLLRVECSDPIRGVQLTDTHLFAATKSHIHVAELNL” belongs “not soluble”; to “MQSLDIKPTVGLIACCECGVAIEPNPANMCSGCLRSRVDITEGITRQCTIYMCKFCDRYFVPPSAWMRAELESKELLSICLKKLKPMLTKVRLTDACFVWTEAHSKRIKVKITIQKEVFTNTILQQAVVVEFTVHSQLCDDCRRAEAKDFWRACVQVRQRAEFKKTLFYLEQLLLKHSAHKECTGVKPVPTGIDFYFAKQQEARKFVDFLMTVLPCKYHYAQELVSHDTKNNTYDYKHTFCVEIVPICRDNIVCLPKKQAQQYGNMSQIVLCLRVSNVITLIDPNNLQLVDVQATNFWREPFDSLCGPKQLTEFYVLDVEPVNNFERKAGHGYVSKKHELADVWLVRSDQVGMSDAQSLSARTHIGHLLSPGDLVMAFDMKNCNVNNATFDAMNIDNVPDAIIVRKVFDRTRRTAKRQWKLKRLVVDGNIVGNETASVADEFQGFMEDIEEDALMREKINIYKDAEKGPNVDGDDAEDHPDAPTLAEMLDDLKFDDEEMKEAESAEDDEAMQE”, “not soluble”; to “MQSWSRVYCSLAKRGHFNRISHGLQGLSAVPLRTYADQPIDADVTVIGSGPGGYVAAIKAAQLGFKTVCIEKNETLGGTCLNVGCIPSKALLNNSHYYHMAHGTDFASRGIEMSEVRLNLDKMMEQKSTAVKALTGGIAHLFKQNKVVHVNGYGKITGKNQVTATKADGGTQVIDTKNILIATGSEVTPFPGITIDEDTIVSSTGALSLKKVPEKMVVIGAGVIGVELGSVWQRLGADVTAVEFLGHVGGVGIDMEISKNFQRILQKQGFKFKLNTKVTGATKKSDGKIDVSIEAASGGKAEVITCDVLLVCIGRRPFTKNLGLEELGIELDPRGRIPVNTRFQTKIPNIYAIGDVVAGPMLAHKAEDEGIICVEGMAGGAVHIDYNCVPSVIYTHPEVAWVGKSEEQLKEEGIEYKVGKFPFAANSRAKTNADTDGMVKILGQKSTDRVLGAHILGPGAGEMVNEAALALEYGASCEDIARVCHAHPTLSEAFREANLAASFGKSINF”, “not soluble”.

For the sequence “MQVKSIKMRWESGGVNYCYLLSDSKNKKSWLIDPAEPPEVLPELTEDEKISVEAIVNTHHHYDHADGNADILKYLKEKNPTSKVEVIGGSKDCPKVTIIPENLKKLHLGDLEITCIRTPCHTRDSICYYVKDPTTDERCIFTGDTLFTAGCGRFFEGTGEEMDIALNNSILETVGRQNWSKTRVYPGHEYTSDNVKFVRKIYPQVGENKALDELEQFCSKHEVTAGRFTLKDEVEFNPFMRLEDPKVQKAAGDTNNSWDRAQIMDKLRAMKNRM”, the “soluble on expression in E. coli” value was “soluble”. For the sequence “MQYINIANRGVKSLSPYQAGKPIEELERELGISNIVKLASNENPFGFPESAKKAIFEQLDKLTRYPDANGFELKQTIAKKFGVQPNQITLGNGSNDLLELFAHTFATEGDEIMYSQYAFIVYPLVTKAINAIVKEIPAKNWGHDLQGFLTALSDKTKLIYIANPNNPTGNFLTSQEIEDFLAEVPENVIVVLDEAYTEFTRSEERVDSFSLLKKYSNLIISRSLSKAYGLAGLRIGYAVSNPEIADLLNRVRQPFNCNSLALTAAVAVMNDDKFVEKVAENNRIEMRRYEDFCQKNQLDYIPSKGNFITIDFKQPAAPIYDALLREGVIVRPIAGYGMPNHLRISIGLPEENDKFFTALSKVLKFA”, the “soluble on expression in E. coli” value is on record as “not soluble”. As for “MRALIIVDVQNDFCEGGSLAVTGGAALARAISDYLAEAADYHHVVATKDFHIDPGDHFSGTPDYSSSWPPHCVSGTPGADFHPSLDTSAIEAVFYKGAYTGAYSGFEGVDENGTPLLNWLRQRGVDEVDVVGIATDHCVRQTAEDAVRNGLATRVLVDLTAGVSADTTVAALEEMRTASVELVCSS”, the entry is “soluble”; as for “MRALPIADDVAGVIFALNGGDLGEDTGCVYYFAPDTLNWESLEVGYSEFLQWALSGDLDTFYENVRWQQWREDVIKLSATEAFTFYPFLWVQSEEARTRKVISLTELWEMQYQMKETFTQLEHHHHHH”, “not soluble”; as for “MRAPGVRAADGAGRVVLYLHGGAFVMCGPNSHSRIVNALSGFAESPVLIVDYRLIPKHSLGMALDDCHDAYQWLRARGYRPEQIVLAGDSAGGYLALALAQRLQCDDEKPAAIVAISPLLQLAKGPKQDHPNIGTDAMFPARAFDALAAWVRAAAAKNMVDGRPEDLYEPLDHIESSLPPTLIHVSGSEVLLHDAQLGAGKLAAAGVCAEVRVWPGQAHLFQLATPLVPEATRSLRQIGQFIRDATADSSLSPVHRSRYVAGSPRAASRGAFGQSPI”, “soluble”.

With “MRAVIPYKKAGAKSRLSPVLSLQEREEFVELMLNQVISSLKGAGIEQVDILSPSVYGLEEMTEARVLLDEKDLNEALNRYLKEAEEPVLIVMADLPLLSPEHIKEISSTEKDVCIVPGKGGGTNALFIKNPSKYRVKYYGSSFLTHCSIATDSGQDFEIYDSFMAGTDIDEPEDLVELLIHGKGAAKDYIESKFRLEVKKG”, the “soluble on expression in E. coli” value is recorded as “not soluble”. To “MRCPYCQYEDTQVKDSRPSEEGTVIRRRRICSVCGGRFTTFERVQLRELLVLKKSGRYEPFDRDKLMRSVEIAVRKRGIDPDYIERVISGIVRQLESLGEPEISSEKIGLLVMKALKSIDDIAYIRFASVYRDFRNASDFHDVIEELSKGITDTESCFDE” belongs “not soluble”; to “MRDFLNTKNQTNQSVYLAILRIKMKTPYQIQFEAFNADDFYTEAHAKLYAQFADNLINEGNYSIVYKGVAHACYTPITIDKAPHLKCFVLAPLAVLPEHQGKGYATQLMEQAESELGADVIFVLGDPKHYARRFNAQHNVALPIGSDESPDFWFARELTTDALDGIGQSSSTIKGVFADPIMWSHPDEQI”, “not soluble”. As for “MRDIQMVLERWGAWAANNHEDVTWSSIAAGFKGLITSKVKSRPQCCDDDAMIICGCMARLKKNNSDLHDLLVDYYVVGMTFMSLAGKHCCSDGYIGKRLQKAEGIIEGMLMALDIRLEMDIVVNNSNLEHHHHHH”, the entry is “not soluble”; as for “MRDVDLTAAPAKKAKLDTGERIAVSGRVASVKLTNFMCHANLQIDFKTAQNNCFYIGGPNGSGKSALFAAINLGLGGRGSDNDRGNTVKSYIKDGTTQSKITITLTNAGLNAHPDFDDLISIERTINQASSTYIMKSVKVTSSDNHVERIVSRKKADVDRIVSRFSIHLSNPAFWMSQDRSRSFLANFKPANVYKLYLESTNLENIRLSYIRFADALDECFALIQLKAGEILNEQKKLKRMQEQRDLQAKLDQDRALVASFCWKLLFCKVRDYNDQIELTLKKQEAQKTLQDETKKEYAKNRAARTEVEKKIQEFRDEVEVQDAEIAEAREDLDAKKRKVLEFEEKIRECEQSIRKKTSEKKYMERTIVNAKNEVRILLEKQGNQDLTKRLTKVENDYKDISQQRENMELGGESAKLREKLDTVITDYKRKEEEKYTIQRDINQLRRKIEQDMETMRRSRATKKDAINKFGSHMAEILMEINRSKSRFQTVPKGPLGKYITLIDPKWAFTVEECIGNLANNFLCSSHLDAEILRNIFQSLRIPAQDRPTIIVAKCNGRAYTNLHEPSSDFKSIYRVLKFSDPDVHNVIIDKSNCEQFILIEDKTEAMELMGSNYPPQNAVKAYTLDGSQAYANGPNSQYRFYSGRGGHARGTFGNDQGDVDEGALARLIEDTKSEAMRLETQDLRKQDHELKVIYNERDQTKAAIDEFDRKLSNLRSQELQKERQAKDLRAELAQTANEDQVENLNESIEEMQKKIPLIEDEVKDILKNVADITADMAPVIQERKEAEHTLAEIQKETRDFASKSQKLQNELSKYDDAGEILKIRLDKVKADEGVFFHTEAKLKSERDDAMEMVENDKKNHPMPPGETDPPDLSSFPSTTEAQRKIEEMQKAVDRATVGCDTTITLECVKDFKDKLKRLKYLCRMIEDVLIELKNLHAARVKAYPSLKKFTELKVCNKFQELLAVRGHFIGGLEFDHEKETLNVNVQSSKEKDAMAGRRPEVLEVEEVDEHSYDDDSDDSTGPRRKKSKKSGQKKKRVRDLKGLSGGERSFVTAALVMSLWEVMEQPFRMMDEFDVFMDMMNRKLVMDLLVELATKKFPHNQFIFFTPQGIKELNMVDGLQVFEMNRVRD”, “not soluble”; as for “MREEVKTVIKVKTVGDVPAIVSARKSITEGKVKDAIISGYRDVKNDYMRYFGIQQAPDEGERLFIVNTLKGLGIDLPEESIVDGKFIIDRISGMDLASTDPKVACFVKIAEFYLKYYEKAKYSDSVIEDDGEIIERLTGIYNYMDITKLYFKGDDAGVGT”, “not soluble”. To “MRESPYRILEEALRPHLGARAQVVLEEGLKRLGKRPEELSEKDAETLLKGLIFRELQARLPAAQARRAVEEALARLAPAPEGGLEALERGLARFGLYVDWPEVGRLRALVNRLRREPDPRLLQEGLALLDHLEEKLEEALLRQAQDLAHLEEALERVRPLGGPKVRRLESLIQIVREAHREGTLAQGEVERARGPGPEAPQVPGLQSRPARHPPRDGL” belongs “soluble”; to “MRFVYLSDLDNNQKNFYKEADRQSALLSMLIEKDIDFIGAGANFYQVGSKKDWSQFPLFADSLLHRSNSLISLQWMEKVEEKDIDEHFQQIHKNYPLAKLYTVPKDQPKTYGYVMKNHEPIYIATDIYPRDEKNTPLIGFYSSRERFNLVVEEFLTTGRPSVSDKIRLLQDSLDQSAQKTGMLVYHPVFTSDKTALKGVMVGVVRITSYFDRLVNSTSLGEELVVRIIDTGFDAGDDPIMYQSSTWNNFKGVDYTTSVKIENRLWKIEYKSDNKLNEYQRLTLEHHHHHH”, “not soluble”.
